Assay results taken from patent US20250188133A1, “CHIMERIC BACTERIOCINS AND METHOD FOR THE CONTROL OF PSEUDOMONAS” (priority 2022, published 2025).

Legend:
P. aeruginosa ATCC 19660 [1] = experiment: MIC by agar dilution method; assay type: cell-based; conditions: against ATCC 19660; CAA agar with 0.1 mg/ml BSA
Experimental: (§1) Aliquots of melted CAA (1.5% agar) medium (final volume—25 ml) pre-wormed to 51° C. were supplemented with 0.1 mg/ml BSA and with appropriate amounts of pyocin stock solutions of different concentrations (concentrations lowered by a factor of 2). Aliquots were poured into Petri plates. P. aeruginosa cultures were grown from single colony in CAA medium at 37° C., 200 rpm until OD595=0.2 and diluted to 10^7 CFU/ml in CAA medium. 1 μL of bacteria suspension were applied in three replicates on each test plate. Plates were left to incubate in 37° C. overnight. The determined MIC is a concentration of pyocin, where no confluent bacterial growth is observed.

P. aeruginosa PAO1 = experiment: MIC by agar dilution method; assay type: cell-based; conditions: against PAO1; CAA agar with 0.1 mg/ml BSA
Experimental: as §1

P. aeruginosa ATCC 27853 = experiment: murine lung colonization and treatment (CD1 mice); assay type: in vivo; conditions: 5 h post infection
Experimental: CD1 male mice were supplied by Charles River (Margate, UK) and were specific pathogen free. Mice were 11 to 15 g on receipt at the facility and were allowed to acclimatize for at least 7 days.
P. aeruginosa ATCC 27853 was recovered from long-term storage (−80° C.) and cultured on cystine-lactose-electrolyte-deficient (CLED) agar at 37° C. under aerobic conditions for approximately 16-24 h. 20 ml of Mueller Hinton broth was inoculated with a single well isolated colony and cultured overnight at 37° C. with shaking at 300 rpm65. The overnight broth was diluted 1:100 in Mueller Hinton broth and 100 ml was cultured in a baffle flask for ˜6 h at 37° C. with shaking at 300 rpm until the broth OD was ˜0.6 (˜mid-exponential phase). 20 ml of culture was centrifuged at 2465 g for 10 minutes and washed in PBS. The pellet was suspended in PBS and the OD600 adjusted to 0.67 (˜2.6×10^8 CFU/ml). The study inoculum was prepared from this by appropriate dilution with PBS. The inoculum concentration was confirmed by quantitative culture on Pseudomonas Selective Agar (PSA). The inoculum concentration for the study was 1.47×10^7 CFU/ml (5.87×10^5 CFU/mouse).
Mice were infected under temporary inhaled 3% isoflurane anesthesia by intranasal (IN) instillation with 40 μl of the inoculum suspension split as 20 μl/nostril.
1 hour post infection 6 mice were sacrificed in order to evaluate the pre-treatment burden in lungs. Treatments were administered IN once at 1 h post infection (50 μl split to 25 μl/nares). Three treatment groups consisting of six mice each were administered S5-PmnH (2.5, 25 and 250 μg). The fourth group of mice (n=6) was administered 200 μg Tobramycin (40 mg/ml injection solution, Hospira UK Ltd, diluted 10 times). The study was terminated at 5 hours post infection for all animals. The clinical conditions and weights were assessed and animals were immediately euthanized using an overdose of pentobarbitone. Following confirmation of death, the lungs were excised and homogenized in ice cold sterile phosphate buffered saline using a Precellys bead beater. The homogenates were quantitatively cultured onto PSA agar and incubated at 37° C. for 24 hours before colonies were counted.

P. aeruginosa ATCC 19660 [2] = experiment: murine keratitis model, cytotoxic strain (C57BL/6 mice); assay type: in vivo; conditions: for viable bacteria isolated, one mouse: only mouse with viable bacteria
Experimental: The inbred mice of C57BL/6 strain of both sexes in equivalent numbers were used for the research. 2-6 months old, adult female and adult male mice were purchased from the Vilnius University vivarium of laboratory animals. The animals throughout the period of the experiment were given standard chow and drinking water ad libitum. Animals were housed in the individual plastic cages in a 12 h light/dark cycle at 21-23° C. All regulated procedures on living animals were approved by The Lithuanian Ethics Committee of Biomedical Research (Protocol no. B1-442) and were carried out in accordance with the European Union legislation of OECD (directive 2010/63/EU). The experiments were carried out in Biological research center of Lithuanian University of Health Sciences.
For P. aeruginosa infection and keratitis induction the mice were anesthetized by Ketamine and Xylazine 90:9 mg/kg intraperitoneal injection. The cornea of the left eye of each mouse was visualized under a stereoscopic microscope, and three 1 mm scratches were made using a sterile 25 gauge needle. A 10 μL aliquot containing 4×10^6 cells of P. aeruginosa ATCC 19660 (cytotoxic strain) or PAO1 ATCC 15692 (invasive strain) was applied to the corneal surface. Depending on the experiment, the treatment was started 30 min or 6 h post infection. 10 μl aliquot containing 0.14 mg of tobramycin or 20 μg of S5-PmnH (both containing 0.5% hydroxypropyl methylcellulose (HPMC)) or PBS containing 0.5% HPMC was applied as one drop of substance to the each eye. HPMC is used as artificial tears and was used in order to thicken the tears film and prolong the presence of the applied product on the surface of the cornea. The treatment was continued for five days twice daily. Mice were euthanized by cervical dislocation 1, 3, 5 days post infection, and the eyeballs were collected and homogenized for viable bacteria count.
The eyes were examined and photographed with a dissection microscope equipped with a digital camera at 1, 3 and 5 dpi to monitor the disease progression. At 1, 3 and 5 dpi disease severity was visually graded by using an established corneal damage scale: 0, the pupil was partially or fully covered by clear or slight opacity; +1, the anterior segment was partially or fully covered by slight opacity; +2, the pupil was partially or fully covered by dense opacity; +3, the entire anterior segment was covered by dense opacity; and +4, corneal perforation^40.
Histopathology experiments were carried out at Lithuanian University of Health Sciences, Department of Veterinary Pathobiology of Veterinary Academy. One randomly chosen mice of each study group was used for histopathology experiments. Enucleated eyes were preserved in 10% formaldehyde. Eyes were paraffin-embedded, cut into 3-μm-thick sections, deparaffinised, rehydrated and used for preparation of hematoxylin/eosin stained samples.

[3] = treatment started 30 min post infection
[4] = treatment started 6 h post infection, 1 dpi

B1: S5-PmnH (protein)
chain: MSNDNEVPGSMVIVAQGPDDQYAYEVPPIDSAAVAGNMFGDLIQREIYLQKNIYYPVRSIFEQGTKEKKEINKKVSDQVDGLLKQITQGKREATRQERVDVMSAVLHKMESDLEGYKKTFTKGPFIDYEKQSSLSIYEAWVKIWEKNSWEERKKYPFQQLVRDELERAVAYYKQDSLSEAVKVLRQELNKQKALKEKEDLSQLERDYRTRKANLEMKVQSELDQAGSALPPLVSPTPEQWLERATRLVTQAIADKKQLQTTNNTLIKNSPTPLEKQKAIYNGELLVDEIASLQARLVKLNAETTRRRTEKELTPDEKAAYTDAVSFVSTANEQMLQKYGANLSKVAQDMQAEIAGKKVRSYAEAMATFEKISANPAMKLNALDTQAVVDALNALDKASFADNITRLGKAFGVVGKVVQAEAIREKTVSGFQTGDWKPLMLELEAMAVGTGAGILLATSMAFFFPVFASAAAGVVVVALMMAATAAYFDAAKVDEINNLILN
modifications: Chimeric S5-PmnH
P. aeruginosa ATCC 19660 [1]
  MIC determined by agar dilution method: 32 µg/mL
P. aeruginosa PAO1
  MIC determined by agar dilution method: 4 µg/mL
P. aeruginosa ATCC 27853; 2.5 μg/mouse IN once 1 h post infection
  reduction of lung burden vs vehicle: 2.1 log10 CFU/g
P. aeruginosa ATCC 27853; 2.5 μg/mouse IN once
  reduction of burden below the level of stasis (pre-treatment): 0.58 log10 CFU/g
P. aeruginosa ATCC 27853; 25 μg/mouse IN once 1 h post infection
  reduction of lung burden vs vehicle: 2.31 log10 CFU/g
P. aeruginosa ATCC 27853; 25 μg/mouse IN once
  reduction of burden below the level of stasis (pre-treatment): 0.78 log10 CFU/g
P. aeruginosa ATCC 27853; 250 μg/mouse IN once 1 h post infection
  reduction of lung burden vs vehicle: 2.66 log10 CFU/g
P. aeruginosa ATCC 27853; 250 μg/mouse IN once
  reduction of burden below the level of stasis (pre-treatment): 1.13 log10 CFU/g
P. aeruginosa ATCC 19660 [2]; [3]
  histopathology of infected treated eyes: Only weak oedema in the corneal stroma
  signs of disease (visual inspection, clinical score): No signs of disease were observed in majority of samples
P. aeruginosa ATCC 19660 [2]; treatment started 30 min post infection, twice daily, 1, 3 or 5 dpi, 20 μg S5-PmnH or 0.14 mg tobramycin per eye
  viable bacteria isolated from infected eyes: no viable P. aeruginosa were isolated
P. aeruginosa ATCC 19660 [2]; treatment started 6 h post infection, 1 and 3 dpi, two S5-PmnH-treated and one tobramycin-treated mice
  clinical score evaluation: Only mild disease signs were observed
P. aeruginosa ATCC 19660 [2]; [4]
  histopathology of infected treated eyes: signs of acute inflammation of cornea
  viable bacteria isolated, one mouse: 3.6 log10 CFU/cornea
P. aeruginosa ATCC 19660 [2]; treatment started 6 h post infection, 3 and 5 dpi
  histopathology of infected treated eyes: no marked aberrations
P. aeruginosa ATCC 19660 [2]; treatment started 6 h post infection, 3 dpi
  viable bacteria isolated, one mouse: 5 log10 CFU/cornea
P. aeruginosa ATCC 19660 [2]; treatment started 6 h post infection, 5 dpi
  clinical score evaluation: all corneas were completely clear
P. aeruginosa ATCC 19660 [2]; treatment started 6 h post infection, 5 dpi, three mice
  viable bacteria isolated: No viable bacteria were isolated
